Experimental data taken from the nanobody polyreactivity screen of Harvey et al. (2022).

Assay: yeast display, Sf9 membrane polyspecificity reagent, FACS + sequencing; frameworks hold sequencing errors
How it was run: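 Sorting gates, low and high (top ~1%), were placed on anti-HA fluorescence to track expression and on streptavidin fluorescence to track reagent binding. A clone's polyreactivity label is taken from the gate it came out of. The reagent was 10% biotinylated, detergent-solubilized Sf9 membrane, applied for 1 hour at 4 °C to galactose-induced yeast display cells.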

Sequence | polyreactivity (PSR sort gate)
QVQLVESGGGLVQAGGSLRLSCAASGSIFSSYAMGWYRQAPGKERELVAVINSGGSTNYADSVKGRFTISRDNAKNSVYVQMKSLKPEDTAVYYCNAYGGTFHNTAAEFDYWRQGTQVTVSS | low polyreactivity
QVQLVESGGGLVQAGGRLRLSCAASGINFSHKVMGWYRQAPGKERELVAAITYSGGSTYYADSVKGRFTSSRDNAKNTVYLQMNSLKPEDTAVYYCNALGVSRRDYDYWGQGTQVTVSS | low polyreactivity
QVQLVESGGGLVQEGGSLRISCAASGFSYENNAMGRYRQAPGKERERVAGITSGGGSTYYADSVKGRFTISRDNAKNTVYLQMNSLKPEDTAVYYCNKMYTRVGFTFEYWGQGTQVTVSS | low polyreactivity
QVQLLESGGGLVQAGGSLRLSCAASGSTFYSYAMGGYRQAPGKERELVAAISSSSGSTYYADSVKGRFTISRDNANNSVYLQMNSLKPEDTAVYYCNRGRRYSHKYDYWGQGTQVTVSS | high polyreactivity
QVQLVESGGGLVQAGGSLRLSCAASGFILNKNVMGWYRQAPGKERELVAAITASGSSTYYADSVKGRFTISRDNAKNTVYLQMNSLKPEDTAVYYCAARGYWSSYAPRFNYWVQGTQVTVSS | high polyreactivity
QVQLVESGGGLVQAGGSLRLSCAASGRILRVYAMGWYRQAPGKERELVAAISSGGSTNYADSVKGRFTISRDNAKNTVYLQMNSLKPEDTAVYDCAATVRGVGYRYYYWGQGTQVTVSS | high polyreactivity
QVQLVESGGGLVQAGGSLRLSCAASGFSFRQYAMGWYRQAPGKERELVAAISRSGSRTYYADSVKGRFTLSRDNAKNTGYLQMNSLKAEDTAVYYCNAVFSTFTGEYYWGQGTQVTVSS | high polyreactivity
QVQLVVSGGGLVQAGGSLRLSWAASGIIFYEYAMGWYRQAPGTERELVAAITWSGRTYADSVKGRFTISRDNAKNTVYLQMNSLKPEDTAVYYCNAVYFGGPFFGQYNYWGQGTQVTVSS | low polyreactivity
QLQLVESGGGLVQAGGSLRLSCAASGSIFQYNAMGLYRQAPGKRELVAALNRSGGSTYYGDSVKGRFTISRDNAKNTVDLQMNSLKPEDTAVYYCAAGVFYFLKYTVSFINYYWRQGTQVTVSS | high polyreactivity
QVQLVESGGGLVQAGGSLRLSCAASGRIFYYYAMGWYRQAPGKEREFVAAIRVTSDSTYYADSVKGRFTISRDNAKNTVYLQMNSLKPEDTAVYYCAADSFYFPYDYWGQGTQVTVSS | high polyreactivity
QVQLVESGGGLVQAGGSLRLSCAASGFIFRYYAMAWYRQAPGKERELVASISRRGGSTYYADSVKGRFTISRDNSKNTFYLQMIRLIPEDTAVYYCAADVVNTVYYPGYDYLGQGTQVTVSS | high polyreactivity
QVQLVESGGGLVQAGGSLRLSCAASGIFGWYAMGWYRQARGKEREFVATINWSGGRTYYADSVKGRFTISRDNAKNTVYVQMNSLKPEDTAVYYCAPENYASQYDYWGQGTQVTVSS | low polyreactivity
QVQLVESGGGLVQAGGSLRLSCAASGFIFRRYAMGWYGQAPGKERELVAVIRSSGGSTYYADSVKGRFTISRDYAKNTVYLQMISLNPEDTAVYYCAAVSYSSYRYDYWGQGTQVTVSS | high polyreactivity
QVQLVESGGGLVQAGGSLRLSCAATGITFYINAMAWYIQAPGKESEFVAAIDFNTGDTYYADSVKGRFTISRDTSKNTVYLEMNRLKPEDTAVYYCAADVGYWYGYYYIYDFWAQGTQVTVSS | high polyreactivity
QVQLVESGGGLVQAGGSLRLSCAASGRTFSGYVMGWYRQAPGKERELVATINGSGASTYYADSVKGRFTISRDNAKNTVYLQRKSLKPEDSAVYYCAAKRYRPKYEYYYWGQGTQVTVSS | high polyreactivity
QVQLVESGGGLVQAGGSLRLSCAASGSIFFGYAMGWYRQAPGKERELVAGISSNGGTTYYADSVKGRFTISRDHANNTVNLQMNSQKPEDTAVYDCATQYYARGYLYDYWGQGTQVTVSS | low polyreactivity
QVQLVESGGGLVQAGGSLRLTCAASGRIFNYYAMGWYRQAPGKERELVAVITYSAGRTYYADSVKGRFTLSRDNAKNTVYLEMNSLKPEDTAVYYCNADGWVSVSKHYYYWGQGTQVTVSS | low polyreactivity
QVQLVESGGGLVQAGGSLRLSCAASGSTFNFYAMGWYRQAPGKEREFVAAITSSGDSTYYADSVKGRFTISRDNAKNTVYLQLNSLKPEDTAVYYCAARLRWRYSYDYWGQGTQVTVSS | high polyreactivity
QVQLVESGGGLVQAGGSLRLSCAASGFIFGTNAMGWYRQAPGKERELVAAISIGDSTYYADSVKGRFTISRDNAKNTVYVQKNSLKPEDTAVYYCNARAYSIYLLQKTYAFNYWGQGTQVTVSS | low polyreactivity
QVQLEESGGGLVQAGGSLRLSCAASGSIFEWNDMGWSRQAPGKEREFVAAITSTDDGTYYADSVKGRFTISRDNAKNTVYLQMNSLKPEDTAVYYCAKRAWGSPYGYWGQGTQVTVSS | low polyreactivity
QVKLVESAGGLVQAGGSRRLSCAASGSIFRAYAMGWYRQAPGKESELVADISRSGGSTYYADSVKGRFTISRDNAKNNVYLQMNSLIPEDTAVYYCNRLPQYALPYRHNGYWGQGTQVTVSS | low polyreactivity
QVQLVESGGGLVQEGGSLRLTCAASGITFIYYAMGWYRQAPGKERELVAAISTGGSTYYADSVKGRCTISRDNAMNTVYLQMISLKPEDTAVYYWNALRKSLRGGDYWGQGTQVTVSS | high polyreactivity

Sequence | polyreactivity (PSR sort gate)
QVQLVESGGGLVQAGGSLRLSCAATVSTIKTYATMGLYRQAPWTERELVAAITSGSSTNYADSVKGRFTISRDNAKNTVYLQMNSMKPEDTAVYYCAADDYYNWYLGEPGDYWGQGTQVTVSS | low polyreactivity
QVQLVESGGGLVQAGGSLRLSCAASGIIFALYAMGWYRQAPGKERELVATITYSGGSTYYADSVKGRFTISRDNAKNTVYLQMNSLKPEDTAVYYCAADYYILRWRQTNDYWGQGTQVTVSS | low polyreactivity
QVQLVESGGGLVQAGGSLRLSCAASGFTFGYYAMGWYRQARGKERELVAAISSRGSGTYYADSVKGRFTISRDNAKNTVYLQMNSLKPEDTAVYYCARPAALLGYWGQGTQVTVSS | low polyreactivity
QVQLVESGGGLVQAGGSLRLSCAASGFNFVYYAMGWYREAPGKERELVAVISWSGGSTNYADSVKGRFTISRDNAKNTVYLQMNSLKPEDTAVYYCAADAYAYTPYYGYRVDYWGQGTQVTVSS | high polyreactivity
QVQLVESGGALVQAGGSLRLSCAASGRIFIVYAMRWYRQAPGKERELVASITSGASTNYADSVKGRFTISRDNAKNTVYLQMNSLKPEDTAVYDCNADGPGAYLSEFGYWGQGTQVTVSS | low polyreactivity
QVQLVESGGGLVQAGGSLRLSCAASGSIFWSNSMGWDRQAPGKERELDAAISQDGGSTNYADSVKGRFTISRDNAKNTVYLQMTSQKPEDTAVYYCAVKYWSYEPPSYSIEYGYWGQGTQVTVSS | low polyreactivity
QDQLVESGGGLVQAGGSIRLSCAASGYIFLLYDMGWYRQAPGKERDMVATITSGGGTYYADSVKGPFTISRDNAKNTVYLQMNSLKPEDTAVYYCNADLYRWTGRSYWDKHGYWGQVTQVTVSS | low polyreactivity
QVQLVESGGGLVQAGGSLRLSCAASGRIFGTYAMGWYRQAPGKERELVAAITSSGSTNYADSVKGRFTISRDTAKKTVYLQMNSLKPEDTAVYYCAAVWVVFYYCYTVPVHYEYWGQGTQVTVSS | low polyreactivity
QVQLVESGGGLVQAGGSLRLSCAASGIIFRYYAMGWYRQAPGKERELVAVITGRGGGTYYADSVKGRFTISRDNAKNTVYLQMNSLKPEDTAVYYCAKDFTGHYPKGFDYWGQGTQVTVSS | low polyreactivity
QVQLVESGGGLVQAGGSLRVSCAASGRIFYPYAMGWYRQAPGKERELVAAIRRSGVDTYYADSVKGRFTISRDNAKNTVYLQMNSLKPEDTAVYYCDADPYWFFPHYDSWGQGTQVTVSS | low polyreactivity
QVQLVESGGGLVQAGGSLRLSCAASGSTFYFYAMGWYRQAPGKERELVAVISSGGRTYYADSVKGRFTISRDNAKNTVYLQMNSLKPEDTAVYYCAASWPSSLTYYYWGQGTQVTVSS | low polyreactivity
QVQLVESGAGLVQAGGSLRLSCAPSGIIFYWNTMAWYRQAPGKERELVAAISSRSGSTYYADSVKGRFTISRDNAKNTVYLQMISLKPEDTAVFYCAARYGYRYADKGTDYGYWGQGTQVTVSS | high polyreactivity
QVQLVESGVGLVQAGGSLRLSCAASGYTIDWYTMGWYRQAPGKERELVAAISASGVRTYYADSVKGRFTISRDNAKNTVYLQMNSLKPEDTGVYYCNRVYSTSRITQYEFDYWGQGTQVTLSS | low polyreactivity
QVQLVESGGGLVQAGGSLRLSCAASGRTFYYNPMGWYRQAPGKERELVAAITQSGGRTYYADSVKGRFTISRDNAKNTVYVQMNSVKPEDSAVYYFYAVRPVRGYIYQGYNYWGQGTQVTVSS | high polyreactivity
QVQLVESGGGLVQAGGSLRLSCGASGGFFYFNAMGRYRQAPGKEREVVASITWSGGNTYYADSVKGRFTISRDNAKHTVDLQMNSLTPEDTAVYYCAADTLEYRPTYDYWGQGTQVTVSS | low polyreactivity
QVQLVESGGGLVQAGGSLRLSCAPSGRIILRYTMGRYRQARGKERQLVAAISARTTGTYYADSVKGRFTISRDNAKNTFYLQLNSLKPEDTAVYYCAAKCKLSRVLYSWGQGTQVTVSS | low polyreactivity
QVQLEESGGGLVQAGGSLRLSCAASGRTINGNTMGWYRQAPGKERELVAVIDWSGGSTYYADSVKGRFTISRDNAKNTVYLQMNSLKPEDTAVYYWNAETRDPILYGEYDYWGQGTQVTVSS | low polyreactivity
QLQLVESGAGLVQAGGSLRLICAASGSIFKSYAMGWYRQAPGKQMEFVAAISWSGGSTYADSVKGRFTISRDNAKNTVYLQMNSLKPEDTAVYYCNKDDYWFLGFYYWGQGTQVTVSS | low polyreactivity
QVQLVESGGGLVQAGGSLRLSCAASGSIFGYYAMGWYRQAPGKERELVAAITRSGGSTYYADSVKGRFTISRDNAKNTVYLQMNSLKPEDTAVYYCNAVRYAVRLPAFPGYDYWGQGTQVTVSS | high polyreactivity
QVQLVESGGGLVQAGGSLRLSCAASGFTFYRYAMGWYRQAPGKEREFVAVINIRGSTTYYADSVKGRFTISRDNAKNTVYLQMNSLKPEDTAVYYCARRYRGPYYSLPRRKEFDYWGQGTQVTVSS | high polyreactivity
QVQLVESGGGLVQAGGSLRLSCAASGSIFSYYTMGWYRQAPGKERELVAAITKSGGSTYYADSVKGRFTISRDNAKNTVYLQMNSLKPEDTAVYYCAASYGGYPKGNYWGQGTQVTVSS | high polyreactivity
